Data reported in patent US20090062514A1.
“And” between values parts separate entries of the source, which are not always exact repeats. Identical values can stand only once.

Biological target: human IgG (Sigma 14506) (human)
Experiment: co-precipitation of human IgG with viral particles by centrifugation; SDS-PAGE of pellets and supernatants

Question: What does the source list for “recombinant viral particles displaying protein A on their surface (TVCV coat protein-protein A fusion, domains E and D of protein A)”?
Answer: binding capacity (mg IgG/mg of viral particles): 2; CP-protein A fusion molecules per bound IgG molecule (scale: CP-protein A fusion molecules per IgG molecule): 3 and 5
